These results are taken from US20250018014A1, “METHOD FOR TREATING AND/OR PREVENTING REGNASE-1-RELATED DISEASE” (OSAKA UNIVERSITY, priority 2018, published 2025).

To fix the notation:
B1: PP16 (peptide)
peptide: XNFSNSWYNIWD
HELM: PEPTIDE1{[meA].N.F.S.N.S.W.Y.N.I.W.D.[C1CCN([*:1])C1]}$PEPTIDE1,PEPTIDE1,1:R1-12:R3$$$V2.0
SMILES: CC[C@H](C)[C@@H]1NC(=O)[C@H](CC(N)=O)NC(=O)[C@H](Cc2ccc(O)cc2)NC(=O)[C@H](Cc2c[nH]c3ccccc23)NC(=O)[C@H](CO)NC(=O)[C@H](CC(N)=O)NC(=O)[C@H](CO)NC(=O)[C@H](Cc2ccccc2)NC(=O)[C@H](CC(N)=O)NC(=O)[C@H](C)N(C)C(=O)C[C@@H](C(=O)N2CCCC2)NC(=O)[C@H](Cc2c[nH]c3ccccc23)NC1=O
B2: PP15 (peptide)
peptide: XNSWYINIWGHD
HELM: PEPTIDE1{[meA].N.S.W.Y.I.N.I.W.G.H.D.[C1CCN([*:1])C1]}$PEPTIDE1,PEPTIDE1,1:R1-12:R3$$$V2.0
SMILES: CC[C@H](C)[C@@H]1NC(=O)[C@H](CC(N)=O)NC(=O)[C@H]([C@@H](C)CC)NC(=O)[C@H](Cc2ccc(O)cc2)NC(=O)[C@H](Cc2c[nH]c3ccccc23)NC(=O)[C@H](CO)NC(=O)[C@H](CC(N)=O)NC(=O)[C@H](C)N(C)C(=O)C[C@@H](C(=O)N2CCCC2)NC(=O)[C@H](Cc2c[nH]cn2)NC(=O)CNC(=O)[C@H](Cc2c[nH]c3ccccc23)NC1=O
B3: PP19 (peptide)
peptide: XVFYKIWYNWD
HELM: PEPTIDE1{[meA].V.F.Y.K.I.W.Y.N.W.D.[C1CCN([*:1])C1]}$PEPTIDE1,PEPTIDE1,1:R1-11:R3$$$V2.0
SMILES: CC[C@H](C)[C@@H]1NC(=O)[C@H](CCCCN)NC(=O)[C@H](Cc2ccc(O)cc2)NC(=O)[C@H](Cc2ccccc2)NC(=O)[C@H](C(C)C)NC(=O)[C@H](C)N(C)C(=O)C[C@@H](C(=O)N2CCCC2)NC(=O)[C@H](Cc2c[nH]c3ccccc23)NC(=O)[C@H](CC(N)=O)NC(=O)[C@H](Cc2ccc(O)cc2)NC(=O)[C@H](Cc2c[nH]c3ccccc23)NC1=O
B4: PP14 (peptide)
peptide: XRFGVWSWIYPD
HELM: PEPTIDE1{[meA].R.F.G.V.W.S.W.I.Y.P.D.[C1CCN([*:1])C1]}$PEPTIDE1,PEPTIDE1,1:R1-12:R3$$$V2.0
SMILES: CC[C@H](C)[C@@H]1NC(=O)[C@H](Cc2c[nH]c3ccccc23)NC(=O)[C@H](CO)NC(=O)[C@H](Cc2c[nH]c3ccccc23)NC(=O)[C@H](C(C)C)NC(=O)CNC(=O)[C@H](Cc2ccccc2)NC(=O)[C@H](CCCNC(=N)N)NC(=O)[C@H](C)N(C)C(=O)C[C@@H](C(=O)N2CCCC2)NC(=O)[C@@H]2CCCN2C(=O)[C@H](Cc2ccc(O)cc2)NC1=O
B5: PP17 (peptide)
peptide: XDIWFDYWDWD
HELM: PEPTIDE1{[meA].D.I.W.F.D.Y.W.D.W.D.[C1CCN([*:1])C1]}$PEPTIDE1,PEPTIDE1,1:R1-11:R3$$$V2.0
SMILES: CC[C@H](C)[C@@H]1NC(=O)[C@H](CC(=O)O)NC(=O)[C@H](C)N(C)C(=O)C[C@@H](C(=O)N2CCCC2)NC(=O)[C@H](Cc2c[nH]c3ccccc23)NC(=O)[C@H](CC(=O)O)NC(=O)[C@H](Cc2c[nH]c3ccccc23)NC(=O)[C@H](Cc2ccc(O)cc2)NC(=O)[C@H](CC(=O)O)NC(=O)[C@H](Cc2ccccc2)NC(=O)[C@H](Cc2c[nH]c3ccccc23)NC1=O
B6: PP18 (peptide)
peptide: XDIWFDYWDYD
HELM: PEPTIDE1{[meA].D.I.W.F.D.Y.W.D.Y.D.[C1CCN([*:1])C1]}$PEPTIDE1,PEPTIDE1,1:R1-11:R3$$$V2.0
SMILES: CC[C@H](C)[C@@H]1NC(=O)[C@H](CC(=O)O)NC(=O)[C@H](C)N(C)C(=O)C[C@@H](C(=O)N2CCCC2)NC(=O)[C@H](Cc2ccc(O)cc2)NC(=O)[C@H](CC(=O)O)NC(=O)[C@H](Cc2c[nH]c3ccccc23)NC(=O)[C@H](Cc2ccc(O)cc2)NC(=O)[C@H](CC(=O)O)NC(=O)[C@H](Cc2ccccc2)NC(=O)[C@H](Cc2c[nH]c3ccccc23)NC1=O

The first assay addresses T1, full-length human Regnase-1 with a FLAG tag on the N-terminal side and a biotin ligase BirA recognition … (human, UniProt Q5D1E8 1-599, biotinylated at the BirA recognition sequence when required).
T1 sequence: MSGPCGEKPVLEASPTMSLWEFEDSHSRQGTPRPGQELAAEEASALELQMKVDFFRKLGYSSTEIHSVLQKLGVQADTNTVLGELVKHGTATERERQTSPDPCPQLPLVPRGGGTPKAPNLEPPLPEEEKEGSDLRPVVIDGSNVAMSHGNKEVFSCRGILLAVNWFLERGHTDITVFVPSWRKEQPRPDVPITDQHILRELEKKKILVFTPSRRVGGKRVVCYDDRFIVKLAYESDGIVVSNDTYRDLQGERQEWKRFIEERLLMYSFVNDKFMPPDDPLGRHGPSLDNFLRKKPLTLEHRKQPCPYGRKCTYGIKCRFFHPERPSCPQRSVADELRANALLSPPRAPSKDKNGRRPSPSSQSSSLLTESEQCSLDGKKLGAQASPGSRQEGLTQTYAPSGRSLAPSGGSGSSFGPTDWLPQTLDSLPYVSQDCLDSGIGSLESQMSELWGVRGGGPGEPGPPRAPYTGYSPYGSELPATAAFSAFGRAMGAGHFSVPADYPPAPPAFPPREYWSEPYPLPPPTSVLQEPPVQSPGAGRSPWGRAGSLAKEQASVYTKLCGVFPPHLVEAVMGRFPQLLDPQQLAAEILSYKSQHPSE
Briefly: cell-based or functional assay.
Take B1: the “50% inhibition concentration, Regnase-1 phosphorylation by IKKβ (AlphaScreen)” value stood at 20.6 µM.
Same read-out and setting: for B2 the value was 5.6 µM; for B3, 5.4 µM; for B4, 1.6 µM.
On the same count and under the same terms, with B5 the figure was 0.5 µM; with B6, 0.4 µM.

In another assay the target is T2, C-terminal domain-deleted human Regnase-1 (amino acids 1 to 546) with N-terminal FLAG tag and C-terminal BirA … (human, UniProt Q5D1E8 1-546).
T2 sequence: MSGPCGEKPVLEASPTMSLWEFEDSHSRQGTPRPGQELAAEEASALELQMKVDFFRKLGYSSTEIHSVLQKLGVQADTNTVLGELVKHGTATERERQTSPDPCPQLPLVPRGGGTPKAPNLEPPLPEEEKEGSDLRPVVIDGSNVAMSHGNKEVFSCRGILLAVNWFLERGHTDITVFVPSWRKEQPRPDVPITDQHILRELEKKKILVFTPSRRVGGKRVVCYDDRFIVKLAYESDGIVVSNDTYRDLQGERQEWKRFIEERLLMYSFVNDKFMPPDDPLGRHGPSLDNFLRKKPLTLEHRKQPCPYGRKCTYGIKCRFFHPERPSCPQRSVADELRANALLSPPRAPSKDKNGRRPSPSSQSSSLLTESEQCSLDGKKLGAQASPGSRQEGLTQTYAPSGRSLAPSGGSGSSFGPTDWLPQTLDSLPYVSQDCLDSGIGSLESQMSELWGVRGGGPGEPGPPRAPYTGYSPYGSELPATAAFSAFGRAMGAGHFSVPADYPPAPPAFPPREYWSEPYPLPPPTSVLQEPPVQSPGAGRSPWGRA
In words: cell-based or functional assay.
For the molecule B1, the “50% inhibition concentration, Regnase-1 phosphorylation by IKKβ (AlphaScreen)” value came out at 30.8 µM.
On the same count and under the same terms, with B2 the figure was 31 µM; with B3, 12.6 µM.
The same measure, in the same setting: with B4 the figure was 9 µM; with B5, 0.3 µM; with B6, 0.2 µM.

A further assay has as its target T3, C-terminal human Regnase-1 (amino acids 301 to 599) with N-terminal FLAG tag and C-terminal BirA recognition … (human, UniProt Q5D1E8 301-599).
T3 sequence: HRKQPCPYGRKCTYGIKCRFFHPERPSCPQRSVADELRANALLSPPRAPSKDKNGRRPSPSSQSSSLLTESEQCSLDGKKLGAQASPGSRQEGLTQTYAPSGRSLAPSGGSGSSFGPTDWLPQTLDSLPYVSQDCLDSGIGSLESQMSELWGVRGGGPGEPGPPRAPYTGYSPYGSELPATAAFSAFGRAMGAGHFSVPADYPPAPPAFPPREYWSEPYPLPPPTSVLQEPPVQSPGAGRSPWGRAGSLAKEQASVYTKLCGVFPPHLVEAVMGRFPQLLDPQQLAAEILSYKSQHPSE
In words: cell-based or functional assay.
B1: the “50% inhibition concentration, Regnase-1 phosphorylation by IKKβ (AlphaScreen)” value stood at 42.2 µM.
Still for that read-out and setting: with B2 the figure was 22 µM; with B3, 10.1 µM; with B4, 6.5 µM.
Same read-out and setting: for B5 the value was 0.7 µM; for B6, 0.5 µM.

The target in the next assay is T1, full-length human Regnase-1 with a FLAG …. Briefly: cell-based or functional assay. The source holds these as a separate data set.
Turning to B1, the “50% inhibition concentration, Regnase-1 phosphorylation by TBK1 (AlphaScreen)” value is 52.4 µM.
On the same count and under the same terms, with B2 the figure was 8.5 µM.
In the case of B3, the “50% inhibition concentration, Regnase-1 phosphorylation by TBK1 (AlphaScreen)” value turned out to be 3.7 µM.
B4: the “50% inhibition concentration, Regnase-1 phosphorylation by TBK1 (AlphaScreen)” value amounted to 3.1 µM.
Consider B5, for which the “50% inhibition concentration, Regnase-1 phosphorylation by TBK1 (AlphaScreen)” value is under 0.06 µM.
On to B6, for which the “50% inhibition concentration, Regnase-1 phosphorylation by TBK1 (AlphaScreen)” value is 0.6 µM.

The next assay concerns the target T2, C-terminal domain-deleted human …. Briefly: cell-based or functional assay. The source holds these as a separate data set.
Regarding B1, the “50% inhibition concentration, Regnase-1 phosphorylation by TBK1 (AlphaScreen)” value was 38.1 µM.
Same read-out and setting: for B2 the value was 9.5 µM; for B3, 4.6 µM.
Still for that read-out and setting: for B4 the value was 5.2 µM; for B5, 0.3 µM.
The same measure, in the same setting: with B6 the figure was 1.8 µM.

The next assay addresses T3, C-terminal human Regnase-1 (amino acids …). In words: cell-based or functional assay. This is another data set of the same source.
Turning to B1, the “50% inhibition concentration, Regnase-1 phosphorylation by TBK1 (AlphaScreen)” value is over 62.1 µM.
Still for that read-out and setting: with B2 the figure was 17.4 µM; with B3, 5.8 µM; with B4, 6.8 µM.
On the same count and under the same terms, for B5 the value was under 0.06 µM; for B6, 0.9 µM.
